From paper PMC3784611 (Biochemistry, 2013)

Tests used:
[1] = target: unmyristoylated recoverin (bovine) (UniProt P21457); assay: NMR pulsed-field gradient diffusion
[2] = target: unmyristoylated recoverin (bovine) (UniProt P21457); assay: 15N NMR relaxation
CW-EPR line shape = target: the molecule itself; assay: CW-EPR line shape

stoichiometry N [1]	stoichiometry N [2]	Molecule	stoichiometry N (CW-EPR line shape)
2	2	unmyristoylated recoverin (from UniProt P21457 1-202) (natural protein)	–
–	–	myristoylated recoverin spin-labeled only at Cys39 (natural protein, bovine, N-terminal myristoyl group; nitroxide spin label at the native cysteine C39) GNSKSGALSKEILEELQLNTKFTEEELSSWYQSFLKECPSGRITRQEFQTIYSKFFPEADPKAYAQHVFRSFDANSDGTLDFKEYVIALHMTSAGKTNQKLEWAFSLYDVDGNGTISKNEVLEIVTAIFKMISPEDTKHLPEDENTPEKRAEKIWGFFGKKDDDKLTEKEFIEGTLANKEILRLIQFEPQKVKEKLKEKKL	2
